The data set deals with T1, PUF4 RNA-binding domain (Saccharomyces cerevisiae, UniProt P25339 537-888).
T1 sequence: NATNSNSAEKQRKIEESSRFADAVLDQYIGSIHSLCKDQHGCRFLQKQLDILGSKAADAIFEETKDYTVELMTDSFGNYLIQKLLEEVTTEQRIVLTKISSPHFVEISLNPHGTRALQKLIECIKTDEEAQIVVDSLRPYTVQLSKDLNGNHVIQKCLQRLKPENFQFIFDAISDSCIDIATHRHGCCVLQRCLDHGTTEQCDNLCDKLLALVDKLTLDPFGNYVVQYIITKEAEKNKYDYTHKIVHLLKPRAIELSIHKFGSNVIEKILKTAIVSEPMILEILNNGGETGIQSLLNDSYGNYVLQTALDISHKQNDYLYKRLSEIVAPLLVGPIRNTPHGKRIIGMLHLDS
Briefly: Mg; RNA-MaP; 20 mM Na-HEPES pH 7.4, 30 mM KOAc, 0.75 mM MgCl2, 0.1% Tween-20, 5% glycerol, 0.1 mg/mL BSA, 2 mM DTT; 25 C; 0.0125-409.6 nM protein. Particulars: tags: N-His6-TEV cleaved; C-SNAP kept, Cy3B-labelled; label: tethered on chip by stalled RNA polymerase.

A word on the Kd: it is the constant that tells how readily two partners part at equilibrium. Higher therefore signals a looser complex. In the case of UCUCUUUGUAAAUUCUCUCUU (ssRNA) [Ib_S1_P4E.1_K4.1_C4.1_H4.1_A4.1_[T5A]_F4.1_[A9C]_T4.1], binding was put at a Kd of 26.3 nM.

For the molecule UCUCUUUGUAAAUUUUCUCUU (ssRNA) [Ic_S1_P4E.1_K4.1_C4.1_H4.1_A4.1_[T5A]_F4.1_[A9T]_T4.1], binding was put at a Kd of 18.3 nM.

With UCUCUUUGUACAUUUUCUCUU (ssRNA) [Ic_S1_P4E.1_K4.1_C4.1_H4.1_A4.1_[T5C]_F4.1_[A9T]_T4.1], the affinity, expressed as Kd, was 5.25 nM.

B1: Ic_S4_P5E.1_K5.1_C5.1_H5.1_A5.1_[T5C]_[T6C]_[A7T]_F5.1_[A10T]_T5.1 (ssRNA)
RNA: UUUGACAACUGAUCGUUCUUUCUUGUACCUUUUUUCUUUCUCGAUCAGUUGUCUUU
Take B1: the Kd amounted to 12.3 nM.

B2: Ic_S4_P5E.1_K5.1_C5.1_H5.1_A5.1_[A7T]_F5.1_[T8C]_[T9C]_T5.1 (ssRNA)
RNA: UUUGACAACUGAUCGUUCUUUCUUGUAUUUCCAUUCUUUCUCGAUCAGUUGUCUUU
The molecule B2 came in with a Kd of 120 nM.

B3: Ic_S4_P5E.1_K5.1_C5.1_H5.1_A5.1_[T5G]_[A7C]_F5.1_[T8A]_[T9C]_[A10T]_T5.1 (ssRNA)
RNA: UUUGACAACUGAUCGUUCUUUCUUGUAGUCACUUUCUUUCUCGAUCAGUUGUCUUU
B3 registered a Kd of 1040 nM.

B4: Ic_S4_P5E.1_K5.1_C5.1_H5.1_A5.1_[T5C]_F5.1_[T8C]_[T9A]_[A10C]_T5.1 (ssRNA)
RNA: UUUGACAACUGAUCGUUCUUUCUUGUACUACACUUCUUUCUCGAUCAGUUGUCUUU
As to B4, the Kd is 540 nM.

B5: Ic_S4_P5E.1_K5.1_C5.1_H5.1_A5.1_[A7G]_F5.1_[T8G]_T5.1 (ssRNA)
RNA: UUUGACAACUGAUCGUUCUUUCUUGUAUUGGUAUUCUUUCUCGAUCAGUUGUCUUU
Consider B5, for which the Kd was determined as 58.8 nM.

B6: Ic_S4_P5E.1_K5.1_C5.1_H5.1_A5.1_[T5A]_[T6A]_[A7T]_F5.1_[T8C]_[T9C]_[A10G]_T5.1 (ssRNA)
RNA: UUUGACAACUGAUCGUUCUUUCUUGUAAAUCCGUUCUUUCUCGAUCAGUUGUCUUU
With B6, binding was characterised by a dissociation constant (Kd) of 254 nM.

B7: Ic_S4_P5E.1_K5.1_C5.1_H5.1_A5.1_[T5A]_[T6C]_[A7C]_F5.1_[T9A]_[A10G]_T5.1 (ssRNA)
RNA: UUUGACAACUGAUCGUUCUUUCUUGUAACCUAGUUCUUUCUCGAUCAGUUGUCUUU
Molecule B7 yielded a Kd of 48.7 nM.

B8: Ic_S4_P5E.1_K5.1_C5.1_H5.1_A5.1_[A7C]_F5.1_[T8G]_[A10G]_T5.1 (ssRNA)
RNA: UUUGACAACUGAUCGUUCUUUCUUGUAUUCGUGUUCUUUCUCGAUCAGUUGUCUUU
For the molecule B8, the Kd turned out to be 66.3 nM.

B9: Ic_S4_P5E.1_K5.1_C5.1_H5.1_A5.1_[T6C]_[A7C]_F5.1_[T8C]_[T9C]_[A10G]_T5.1 (ssRNA)
RNA: UUUGACAACUGAUCGUUCUUUCUUGUAUCCCCGUUCUUUCUCGAUCAGUUGUCUUU
Molecule B9 came in with a Kd of 674 nM.

B10: Ic_S4_P5E.1_K5.1_C5.1_H5.1_A5.1_[T5C]_[T6C]_[A7T]_F5.1_[T8C]_[T9C]_T5.1 (ssRNA)
RNA: UUUGACAACUGAUCGUUCUUUCUUGUACCUCCAUUCUUUCUCGAUCAGUUGUCUUU
In turn, B10 had a Kd of 198 nM.

B11: Ic_S4_P5E.1_K5.1_C5.1_H5.1_A5.1_[T5C]_[T6A]_[A7C]_F5.1_[T9G]_[A10G]_T5.1 (ssRNA)
RNA: UUUGACAACUGAUCGUUCUUUCUUGUACACUGGUUCUUUCUCGAUCAGUUGUCUUU
Take B11: the Kd worked out at 14.9 nM.

B12: Ic_S4_P5E.1_K5.1_C5.1_H5.1_A5.1_[T6A]_[A7G]_F5.1_[T9A]_[A10C]_T5.1 (ssRNA)
RNA: UUUGACAACUGAUCGUUCUUUCUUGUAUAGUACUUCUUUCUCGAUCAGUUGUCUUU
For the molecule B12, binding was put at a Kd of 3.94 nM.

B13: Ic_S4_P5E.1_K5.1_C5.1_H5.1_A5.1_[T5A]_[T6C]_F5.1_[T9G]_[A10C]_T5.1 (ssRNA)
RNA: UUUGACAACUGAUCGUUCUUUCUUGUAACAUGCUUCUUUCUCGAUCAGUUGUCUUU
For B13, the Kd stood at 25.7 nM.

B14: Ic_S4_P5E.1_K5.1_C5.1_H5.1_A5.1_[T5A]_[T6A]_[A7C]_F5.1_[T9G]_[A10G]_T5.1 (ssRNA)
RNA: UUUGACAACUGAUCGUUCUUUCUUGUAAACUGGUUCUUUCUCGAUCAGUUGUCUUU
B14 showed a dissociation constant (Kd) of 280 nM.

B15: Ic_S4_P5E.1_K5.1_C5.1_H5.1_A5.1_[T5G]_[T6C]_[A7C]_F5.1_[T8C]_T5.1 (ssRNA)
RNA: UUUGACAACUGAUCGUUCUUUCUUGUAGCCCUAUUCUUUCUCGAUCAGUUGUCUUU
In the case of B15, binding was characterised by a dissociation constant (Kd) of 19.6 nM.

B16: Ic_S4_P5E.1_K5.1_C5.1_H5.1_A5.1_[T5C]_[T6G]_[A7T]_F5.1_[T8C]_[T9G]_[A10T]_T5.1 (ssRNA)
RNA: UUUGACAACUGAUCGUUCUUUCUUGUACGUCGUUUCUUUCUCGAUCAGUUGUCUUU
For the molecule B16, the equilibrium dissociation constant (Kd) was found to be 167 nM.

B17: Ic_S4_P5E.1_K5.1_C5.1_H5.1_A5.1_[T5A]_F5.1_[T9C]_T5.1 (ssRNA)
RNA: UUUGACAACUGAUCGUUCUUUCUUGUAAUAUCAUUCUUUCUCGAUCAGUUGUCUUU
Molecule B17 showed an equilibrium dissociation constant (Kd) of 113 nM.

B18: Ic_S4_P5E.1_K5.1_C5.1_H5.1_A5.1_[T5A]_F5.1_[A10G]_T5.1 (ssRNA)
RNA: UUUGACAACUGAUCGUUCUUUCUUGUAAUAUUGUUCUUUCUCGAUCAGUUGUCUUU
As to B18, the affinity, expressed as Kd, was 24.3 nM.

B19: Ic_S4_P5E.1_K5.1_C5.1_H5.1_A5.1_[T5C]_[T6G]_[A7T]_F5.1_[T8G]_[T9C]_[A10C]_T5.1 (ssRNA)
RNA: UUUGACAACUGAUCGUUCUUUCUUGUACGUGCCUUCUUUCUCGAUCAGUUGUCUUU
For the molecule B19, the Kd came to 125 nM.

B20: Ic_S4_P5E.1_K5.1_C5.1_H5.1_A5.1_[T5A]_[T6C]_[A7T]_F5.1_[T8A]_[T9G]_[A10T]_T5.1 (ssRNA)
RNA: UUUGACAACUGAUCGUUCUUUCUUGUAACUAGUUUCUUUCUCGAUCAGUUGUCUUU
For the molecule B20, the Kd was found to be 586 nM.

B21: Ic_S4_P5E.1_K5.1_C5.1_H5.1_A5.1_[T5A]_[T6A]_[A7C]_F5.1_[T8C]_[A10C]_T5.1 (ssRNA)
RNA: UUUGACAACUGAUCGUUCUUUCUUGUAAACCUCUUCUUUCUCGAUCAGUUGUCUUU
With B21, the Kd worked out at 233 nM.

B22: Ic_S4_P5E.1_K5.1_C5.1_H5.1_A5.1_[T5C]_F5.1_[T9A]_[A10C]_T5.1 (ssRNA)
RNA: UUUGACAACUGAUCGUUCUUUCUUGUACUAUACUUCUUUCUCGAUCAGUUGUCUUU
B22 returned a Kd of 3.28 nM.

B23: Ic_S4_P5E.1_K5.1_C5.1_H5.1_A5.1_[T5A]_[T6C]_[A7T]_F5.1_[T8C]_[T9A]_T5.1 (ssRNA)
RNA: UUUGACAACUGAUCGUUCUUUCUUGUAACUCAAUUCUUUCUCGAUCAGUUGUCUUU
Consider B23, for which the dissociation constant Kd is 857 nM.

B24: Ic_S4_P5E.1_K5.1_C5.1_H5.1_A5.1_[T5A]_[A7T]_F5.1_[T8A]_[T9G]_[A10C]_T5.1 (ssRNA)
RNA: UUUGACAACUGAUCGUUCUUUCUUGUAAUUAGCUUCUUUCUCGAUCAGUUGUCUUU
As for B24, the Kd was 338 nM.

B25: Ic_S4_P5E.1_K5.1_C5.1_H5.1_A5.1_[T5G]_[T6C]_[A7G]_F5.1_[T8C]_[T9G]_[A10T]_T5.1 (ssRNA)
RNA: UUUGACAACUGAUCGUUCUUUCUUGUAGCGCGUUUCUUUCUCGAUCAGUUGUCUUU
Molecule B25 registered a Kd of 1620 nM.

B26: Ic_S4_P5E.1_K5.1_C5.1_H5.1_A5.1_[T5C]_F5.1_[T8C]_[T9G]_[A10C]_T5.1 (ssRNA)
RNA: UUUGACAACUGAUCGUUCUUUCUUGUACUACGCUUCUUUCUCGAUCAGUUGUCUUU
With B26, the Kd was found to be 499 nM.

B27: Ic_S4_P5E.1_K5.1_C5.1_H5.1_A5.1_[T5A]_[T6A]_[A7T]_F5.1_[T9C]_[A10T]_T5.1 (ssRNA)
RNA: UUUGACAACUGAUCGUUCUUUCUUGUAAAUUCUUUCUUUCUCGAUCAGUUGUCUUU
B27 registered a Kd of 28.2 nM.

B28: Ic_S4_P5E.1_K5.1_C5.1_H5.1_A5.1_[T5A]_[T6C]_[A7C]_F5.1_[T9A]_[A10T]_T5.1 (ssRNA)
RNA: UUUGACAACUGAUCGUUCUUUCUUGUAACCUAUUUCUUUCUCGAUCAGUUGUCUUU
On to B28, for which binding was characterised by a dissociation constant (Kd) of 5.91 nM.

B29: Ic_S4_P5E.1_K5.1_C5.1_H5.1_A5.1_[T5C]_[T6A]_[A7T]_F5.1_[T8G]_[A10G]_T5.1 (ssRNA)
RNA: UUUGACAACUGAUCGUUCUUUCUUGUACAUGUGUUCUUUCUCGAUCAGUUGUCUUU
For the molecule B29, the Kd is 24 nM.

B30: Ic_S4_P5E.1_K5.1_C5.1_H5.1_A5.1_[T5G]_[T6C]_[A7T]_F5.1_[A10T]_T5.1 (ssRNA)
RNA: UUUGACAACUGAUCGUUCUUUCUUGUAGCUUUUUUCUUUCUCGAUCAGUUGUCUUU
Molecule B30 came in with a Kd of 34.7 nM.

B31: Ic_S4_P5E.1_K5.1_C5.1_H5.1_A5.1_[T5G]_[T6C]_[A7T]_F5.1_[T8C]_[T9C]_[A10C]_T5.1 (ssRNA)
RNA: UUUGACAACUGAUCGUUCUUUCUUGUAGCUCCCUUCUUUCUCGAUCAGUUGUCUUU
As to B31, the Kd was found to be 658 nM.

B32: Ic_S4_P5E.1_K5.1_C5.1_H5.1_A5.1_[A7G]_F5.1_[T9C]_[A10T]_T5.1 (ssRNA)
RNA: UUUGACAACUGAUCGUUCUUUCUUGUAUUGUCUUUCUUUCUCGAUCAGUUGUCUUU
As for B32, the Kd was found to be 134 nM.

These data come from paper PMC9352680, “A comprehensive thermodynamic model for RNA binding by the Saccharomyces cerevisiae Pumilio protein PUF4”.
